Measured values taken from the supplement of paper PMC7877785.
± gives the uncertainty stated by the source.

Experiment: self-splicing fitness, log relative to wild type (ln ratio); higher = more splicing; Tetrahymena group I intron in knt gene, E. coli kanamycin selection, DiMSum; sequences stand for … in CUCUCU…GGAGGGAAAAGUUAUCAGGCAUGCACCUGGUAGCUAGUCUUUAAACCAAUAGAUUGCAUCGGUUUAAAAGGCAAGACCGUCAAAUUGCGGGAAAGGGGUCAACAGCCGUUCAGUACCAAGUCUCAGGGGAAACUUUGAGAUGGCCUUGCAAAGGGUAUGGUAAUAAGCUGACGGACAUGGUCCUAACCACGCAGCCAAGUCCUAAGUCAACAGAUCUUCUGUUGAUAUGGAUGCAGUUCACAGACUAAAUGUCGGUCGGGGAAGAUGUAUUCUUCUCAUAAGAUAUAGUCGGACCUCUCCUUAAUGGGAGCUAGCGGAUGAAGUGAUGCAACACUGGAGCCGCUGGGAACUAAUUUGUAUGCGAAAGUAUAUUGAUUAGUUUUGGAGUACUCGUGGUCG
Method in brief: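 Fitness was computed with DiMSum as the error-weighted combination of replicate fold changes, kanamycin versus none, each normalised to wild type. The library randomised all eight intron nucleotides of the P1ex region, with the intron placed in the knt kanamycin-resistance gene on pET-22b(+) in E. coli BL21(DE3). Six replicate transformations were grown overnight at 37°C or 30°C on LB agar with or without 25 μg/mL kanamycin, plus 100 μg/mL carbenicillin, 50 μM IPTG and 0.2% rhamnose. Pooled colonies were amplicon-sequenced on an Illumina HiSeq 2500.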

Row | Sequence | self-splicing fitness (ln) (30 °C) | self-splicing fitness (ln) (37 °C)
1 | CACAAGCAAUAUUACGGUCU | -2.76 ± 0.1 | -1.99 ± 0.12
2 | CACAAGCAAUAUUACGUACA | -3.03 ± 0.1 | -1.46 ± 0.1
3 | CACAAGCAAUAUUACGUAGC | -4 ± 0.12 | -2.59 ± 0.13
4 | CACAAGCAAUAUUACGUAUC | -4.88 ± 0.25 | -2.19 ± 0.15
5 | CACAAGCAAUAUUACGUGAA | -4.27 ± 0.25 | -2.39 ± 0.21
6 | CACAAGCAAUAUUACGUUAC | -4.46 ± 0.34 | -3.12 ± 0.36
7 | CACCAGCAAUAUUACGAAUA | -3.93 ± 0.21 | -2.62 ± 0.16
8 | CACCAGCAAUAUUACGACCC | -3.82 ± 0.25 | -2.98 ± 0.28
9 | CACCAGCAAUAUUACGACGC | -3.22 ± 0.19 | -1.39 ± 0.16
10 | CACCAGCAAUAUUACGACGU | -2.58 ± 0.096 | -1.11 ± 0.099
11 | CACCAGCAAUAUUACGAGGG | -2.81 ± 0.088 | -1.79 ± 0.093
12 | CACCAGCAAUAUUACGAGGU | -3.22 ± 0.12 | -2.53 ± 0.16
13 | CACCAGCAAUAUUACGAUAA | -4.88 ± 0.31 | -2.14 ± 0.19
14 | CACCAGCAAUAUUACGCAAA | -4.2 ± 0.27 | -2.99 ± 0.2
15 | CACCAGCAAUAUUACGCCAG | -0.583 ± 0.075 | 0.205 ± 0.097
16 | CACCAGCAAUAUUACGCCCG | -0.197 ± 0.14 | 0.343 ± 0.19
17 | CACCAGCAAUAUUACGCUUG | -1.06 ± 0.052 | -0.22 ± 0.069
18 | CACCAGCAAUAUUACGGAGU | -3.74 ± 0.18 | -2.54 ± 0.15
19 | CACCAGCAAUAUUACGGCCC | -1.8 ± 0.17 | -0.352 ± 0.19
20 | CACCAGCAAUAUUACGGGGG | -3.36 ± 0.11 | -2.64 ± 0.18
21 | CACCAGCAAUAUUACGGUAG | -1.97 ± 0.063 | -1.69 ± 0.09
22 | CACCAGCAAUAUUACGGUCA | -0.569 ± 0.05 | 0.174 ± 0.062
23 | CACCAGCAAUAUUACGUAAG | 0.114 ± 0.041 | 0.336 ± 0.061
24 | CACCAGCAAUAUUACGUACC | -4.01 ± 0.43 | -1.84 ± 0.33
25 | CACCAGCAAUAUUACGUAGC | -4.18 ± 0.17 | -2.41 ± 0.14

Row | Sequence | self-splicing fitness (ln) (30 °C) | self-splicing fitness (ln) (37 °C)
26 | CACCAGCAAUAUUACGUCGA | -1.89 ± 0.086 | -0.942 ± 0.088
27 | CACCAGCAAUAUUACGUGCG | -0.627 ± 0.04 | -0.299 ± 0.056
28 | CACCAGCAAUAUUACGUUAG | -0.512 ± 0.048 | 0.279 ± 0.064
29 | CACCAGCAAUAUUACGUUAU | -3.86 ± 0.12 | -3.32 ± 0.15
30 | CACCAGCAAUAUUACGUUUG | -0.595 ± 0.043 | -0.00269 ± 0.064
31 | CACGAGCAAUAUUACGAAGU | -1.68 ± 0.13 | -2.23 ± 0.19
32 | CACGAGCAAUAUUACGAAUU | -4.81 ± 0.41 | -2.25 ± 0.21
33 | CACGAGCAAUAUUACGACGG | -1.6 ± 0.13 | -0.392 ± 0.14
34 | CACGAGCAAUAUUACGACGU | -3.25 ± 0.17 | -3.34 ± 0.23
35 | CACGAGCAAUAUUACGACUA | -2.71 ± 0.21 | -1.85 ± 0.15
36 | CACGAGCAAUAUUACGAGAA | – | -1.61 ± 0.44
37 | CACGAGCAAUAUUACGAGAC | -2.99 ± 0.2 | -1.89 ± 0.3
38 | CACGAGCAAUAUUACGAUAG | -3.14 ± 0.15 | -1.6 ± 0.18
39 | CACGAGCAAUAUUACGCACA | -2.74 ± 0.19 | -1.17 ± 0.15
40 | CACGAGCAAUAUUACGCAUC | -1.74 ± 0.34 | –
41 | CACGAGCAAUAUUACGCCCG | -1.88 ± 0.29 | -1.9 ± 0.28
42 | CACGAGCAAUAUUACGCGAC | – | -2.76 ± 0.27
43 | CACGAGCAAUAUUACGCGCC | – | -0.83 ± 0.48
44 | CACGAGCAAUAUUACGCGCG | -2.9 ± 0.24 | -1.25 ± 0.18
45 | CACGAGCAAUAUUACGCGGG | -4.05 ± 0.26 | -2.88 ± 0.26
46 | CACGAGCAAUAUUACGCGUG | -2.79 ± 0.19 | -2.97 ± 0.38
47 | CACGAGCAAUAUUACGGGAU | -3.52 ± 0.28 | -2.33 ± 0.21
48 | CACGAGCAAUAUUACGGGCA | -2.84 ± 0.31 | –
49 | CACGAGCAAUAUUACGGGUA | -3.26 ± 0.18 | -2.02 ± 0.16
50 | CACGAGCAAUAUUACGUCGU | -2.05 ± 0.14 | -3.43 ± 0.24

Row | Sequence | self-splicing fitness (ln) (30 °C) | self-splicing fitness (ln) (37 °C)
51 | CACGAGCAAUAUUACGUCUG | -2.32 ± 0.095 | -0.929 ± 0.092
52 | CACGAGCAAUAUUACGUGGG | -4.45 ± 0.29 | -2.71 ± 0.18
53 | CACUAGCAAUAUUACGAAAA | -3.29 ± 0.33 | -1.87 ± 0.26
54 | CACUAGCAAUAUUACGAAGA | -3.05 ± 0.24 | -2.27 ± 0.2
55 | CACUAGCAAUAUUACGAGAA | -2.74 ± 0.43 | -1.67 ± 0.28
56 | CACUAGCAAUAUUACGAGAG | -3.21 ± 0.2 | -1.73 ± 0.14
57 | CACUAGCAAUAUUACGCAAG | -2.39 ± 0.098 | -1.43 ± 0.12
58 | CACUAGCAAUAUUACGCGAA | -2.72 ± 0.19 | -2.74 ± 0.2
59 | CACUAGCAAUAUUACGCGCG | -1.1 ± 0.11 | -0.054 ± 0.14
60 | CACUAGCAAUAUUACGCGUU | -2.86 ± 0.13 | -0.877 ± 0.11
61 | CACUAGCAAUAUUACGCUAA | -3.33 ± 0.3 | -1.75 ± 0.19
62 | CACUAGCAAUAUUACGCUUG | -2.03 ± 0.16 | -0.991 ± 0.13
63 | CACUAGCAAUAUUACGGCAU | -4.16 ± 0.19 | -1.55 ± 0.14
64 | CACUAGCAAUAUUACGGCGA | -2.43 ± 0.16 | -1.61 ± 0.2
65 | CACUAGCAAUAUUACGGCGG | -0.21 ± 0.079 | -0.0455 ± 0.092
66 | CACUAGCAAUAUUACGGCUC | -2.9 ± 0.17 | -1.79 ± 0.3
67 | CACUAGCAAUAUUACGGCUU | -3.4 ± 0.24 | -1.91 ± 0.21
68 | CACUAGCAAUAUUACGGUCG | -0.198 ± 0.072 | 0.007 ± 0.085
69 | CACUAGCAAUAUUACGGUUC | -2.4 ± 0.12 | -1.45 ± 0.16
70 | CACUAGCAAUAUUACGGUUU | -1.56 ± 0.077 | -0.979 ± 0.093
71 | CACUAGCAAUAUUACGUACA | -2.35 ± 0.21 | -1.29 ± 0.4
72 | CACUAGCAAUAUUACGUAGA | -3.01 ± 0.089 | -1.81 ± 0.096
73 | CACUAGCAAUAUUACGUCUG | -0.516 ± 0.058 | 0.214 ± 0.074
74 | CACUAGCAAUAUUACGUGUG | -3.71 ± 0.14 | -2.82 ± 0.16
75 | CACUAGCAAUAUUACGUUGC | -2.61 ± 0.22 | -1.58 ± 0.21

Row | Sequence | self-splicing fitness (ln) (30 °C) | self-splicing fitness (ln) (37 °C)
76 | CACUAGCAAUAUUACGUUUG | -2.29 ± 0.079 | -1.42 ± 0.11
77 | CAGAAGCAAUAUUACGAAUU | -3.5 ± 0.2 | -2.05 ± 0.27
78 | CAGAAGCAAUAUUACGACGG | -0.126 ± 0.079 | 0.104 ± 0.1
79 | CAGAAGCAAUAUUACGAGUG | -1.63 ± 0.067 | -0.988 ± 0.091
80 | CAGAAGCAAUAUUACGAGUU | -3.32 ± 0.34 | -2.47 ± 0.3
81 | CAGAAGCAAUAUUACGCAUA | -3.68 ± 0.24 | -2.02 ± 0.18
82 | CAGAAGCAAUAUUACGCCUG | -2.25 ± 0.23 | -3.94 ± 0.39
83 | CAGAAGCAAUAUUACGCGGG | -2.43 ± 0.2 | -2.74 ± 0.27
84 | CAGAAGCAAUAUUACGCGGU | -3.61 ± 0.12 | -2.34 ± 0.14
85 | CAGAAGCAAUAUUACGCUGU | -4.53 ± 0.37 | -2.83 ± 0.21
86 | CAGAAGCAAUAUUACGCUUA | -3.85 ± 0.32 | -1.9 ± 0.18
87 | CAGAAGCAAUAUUACGGCGC | -3.28 ± 0.32 | -1.6 ± 0.31
88 | CAGAAGCAAUAUUACGUAUG | -4.42 ± 0.16 | -2.56 ± 0.13
89 | CAGAAGCAAUAUUACGUGGU | -3.58 ± 0.17 | -1.86 ± 0.16
90 | CAGAAGCAAUAUUACGUUAA | -3.62 ± 0.27 | -3.02 ± 0.43
91 | CAGAAGCAAUAUUACGUUGC | -4.27 ± 0.26 | -2.74 ± 0.25
92 | CAGCAGCAAUAUUACGAAAA | -2.36 ± 0.2 | -2.26 ± 0.28
93 | CAGCAGCAAUAUUACGAAAG | -0.597 ± 0.09 | -0.18 ± 0.12
94 | CAGCAGCAAUAUUACGAAAU | -3.94 ± 0.25 | -2.97 ± 0.27
95 | CAGCAGCAAUAUUACGAACA | -2.72 ± 0.38 | -2.17 ± 0.32
96 | CAGCAGCAAUAUUACGACGA | -1.68 ± 0.13 | -0.501 ± 0.096
97 | CAGCAGCAAUAUUACGACGC | – | -1.5 ± 0.45
